The values that follow come from PMC4412286.

The target in the assay is phosphoinositol 3-kinase (PI3-kinase), p85 subunit (human (endogenous in AGS)) (UniProt P27986).
UniProt P27986, sequence (P27986 whole entry): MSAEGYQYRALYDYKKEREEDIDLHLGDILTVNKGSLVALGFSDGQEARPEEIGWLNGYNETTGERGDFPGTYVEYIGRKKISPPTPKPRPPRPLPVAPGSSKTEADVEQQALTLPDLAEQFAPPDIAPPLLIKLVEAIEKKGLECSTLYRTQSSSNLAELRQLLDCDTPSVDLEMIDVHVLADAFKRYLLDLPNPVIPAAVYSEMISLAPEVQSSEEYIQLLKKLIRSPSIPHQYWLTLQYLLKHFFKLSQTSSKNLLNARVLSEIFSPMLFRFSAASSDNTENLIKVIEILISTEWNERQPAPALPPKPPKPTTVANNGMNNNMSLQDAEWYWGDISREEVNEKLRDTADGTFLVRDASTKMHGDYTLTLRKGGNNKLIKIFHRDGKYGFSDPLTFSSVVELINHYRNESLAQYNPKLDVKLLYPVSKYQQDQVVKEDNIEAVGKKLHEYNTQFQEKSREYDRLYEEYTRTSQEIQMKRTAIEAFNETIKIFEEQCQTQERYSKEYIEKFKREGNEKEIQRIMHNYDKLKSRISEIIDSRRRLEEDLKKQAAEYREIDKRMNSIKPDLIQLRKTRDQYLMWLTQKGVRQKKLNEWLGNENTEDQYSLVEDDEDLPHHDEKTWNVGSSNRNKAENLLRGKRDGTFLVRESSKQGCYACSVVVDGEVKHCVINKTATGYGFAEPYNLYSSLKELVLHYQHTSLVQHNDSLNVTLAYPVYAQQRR

As for “CagA of H. pylori strain 147C with EPIYA B-TPM, HA fusion (natural protein)”, the phosphorylation of AKT at threonine 308 in AGS cells after 24 h co-culture with the EPIYA isogenic strain (immunoblot, fold) was found to be 1.7 fold. The substance “CagA of H. pylori strain 147C with EPIYT B-TPM (wild-type 147C sequence), HA fusion (natural protein)” displayed a phosphorylation of AKT at threonine 308 in AGS cells after 24 h co-culture with the EPIYT isogenic strain (immunoblot, fold) of 2.4 fold.
